# In the supplement of paper PMC12764529:
# ± gives the half width of the 95% confidence interval.
# Experiments:
# [1] = folding stability dG unfold from trypsin proteolysis; higher = more stable
# Summary of the method: (§1)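 Designed mini-proteins with no cysteine and under 80 residues were kept only if AlphaFold2 dimer inter-PAE was above 15. In a PA-tagged cDNA display construct, they were digested with trypsin and chymotrypsin and then sequenced. K50 was inferred by Bayesian fitting of counts, and unfolding free energy was derived per protease or combined against a sequence-predicted unfolded-state K50 and a shared folded-state K50.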
# [2] = folding stability dG unfold from chymotrypsin proteolysis; higher = more stable
# Summary of the method: as §1
# [3] = folding stability dG unfold (combined trypsin and chymotrypsin); higher = more stable
# Summary of the method: as §1
Sequence,folding stability dG unfold [1] [kcal/mol],folding stability dG unfold [2] [kcal/mol],folding stability dG unfold [3] [kcal/mol]
SAGGSAGGSAGWFFVMDIKYEYRQTPDGKTEQEMSIEMKPIPPIPAEDLKEKLGLPPEDIASAGGSAGGSAG [r3_338_TrROS],0.937 ± 0.067,2.62 ± 0.11,1.94 ± 0.17
SAGGSAGGSAGWFTIMFKADSPEKVEEIVDELAQENGLEVEIERNPGEPGYIMITIKPPPSAGGSAGGSAGG [r11_797_TrROS],1.47 ± 0.054,0.974 ± 0.21,1.27 ± 0.12
SAGGSAGGSAGWLMIMFPIPPNADNVRIKWPDGPTQEHEMEPGSPVMIMIPPGNIKIEVDSAGGSAGGSAGG [r11_52_TrROS],1.13 ± 0.054,1.24 ± 0.091,1.21 ± 0.1
SAGGSAGGSAGWRTHSHWVPPDNIPELAERIQDWGVKVEIERDPKDGWYRVTITIPDDFISAGGSAGGSAGG [r11_1043_TrROS],0.793 ± 0.058,1.38 ± 0.15,1.21 ± 0.14
SAGGSAGGSAGYKPGEVVYIEVEDPETGKSLKVPVKVPENMTPEQAKKLAEEAAKKYREGSAGGSAGGSAGG [r11_355_TrMRF],1.57 ± 0.082,2.22 ± 0.095,2.02 ± 0.16
SAGGSAGGSAGYVVIPLDIDAEPGATVEITLPNGEKIEAIVEDHPDGLRSVRVGDGVILVPGSAGGSAGGSA [r18_372_TrMRF],0.465 ± 0.032,0.827 ± 0.05,0.742 ± 0.087
SAGGSAGGSAHKITITLPNGNPPEIVVEFETEEEAKEKAEEIIKKLEEEGYPKENLTVTIEKESAGGSAGGS [r12_295_JUSTAS],1.87 ± 0.076,1.76 ± 0.087,1.86 ± 0.12
SAGGSAGGSAILVPSPETAKKIMDELRKKTGAKVKMKPIGTGADGKEYYRIEVVPPDKPLDSAGGSAGGSAG [r3_59_TrMRF],0.029 ± 0.084,-0.118 ± 0.14,0.0705 ± 0.14
SAGGSAGGSAIMINIDLEYDPGDGTIELEYKISFMDPGGKPMGMITIRLEIRIPPPEPDPDDKSAGGSAGGS [r12_254_TrROS],3.08 ± 0.31,3.64 ± 0.39,3.37 ± 0.46
SAGGSAGGSAIVILLPWGFLIEIKNIRMEMKRDPGNGEPKMDMHIPIEIIPIPPPGDPAFQESAGGSAGGSA [r18_6_TrROS],2.12 ± 0.054,3.17 ± 0.039,2.79 ± 0.14
SAGGSAGGSAKAKIKKVEVEKEGDKLRVTAEIELEDGYVLKVSFEFKDDEIKMEIEIVPLKDSAGGSAGGSA [r18_79_TrROS_Hall],3.02 ± 0.32,3.38 ± 0.29,3.22 ± 0.48
SAGGSAGGSAKAKVIKTEEFELPNGVRIRIEYIEVDGKLIEKVEIEIKAESEEQKKALEKASAGGSAGGSAG [r3_158_TrROS_Hall],1.29 ± 0.052,1.82 ± 0.15,1.71 ± 0.17
SAGGSAGGSAKIRLIFKTEEEARKAIEALLPEGAKAKIKVEKRKDGKKYVVVEIEFKEEEESAGGSAGGSAG [r3_87_TrROS_Hall],3.58 ± 0.24,3.79 ± 0.23,3.57 ± 0.21
SAGGSAGGSAKIWIILKDADEARDRIEELFGPGVRIEPVNIQRWDGKVYVMIEIEIPPNMTSAGGSAGGSAG [r3_87_TrROS],2.1 ± 0.055,2.4 ± 0.051,2.28 ± 0.054
SAGGSAGGSAKKKILVKKPDGRLLLIEIDKDKPNTVRIYDIDTGKKIELSVEDLKKLKIKKSAGGSAGGSAG [r3_451_TrROS_Hall],1.57 ± 0.034,2.35 ± 0.052,2.08 ± 0.052
SAGGSAGGSAKKPVTGTIILKYPGTPEDALAKAKEIAKELESRGYSVSAEFLPNGYIKITLPSAGGSAGGSA [r18_262_TrMRF],1.48 ± 0.049,1.78 ± 0.051,1.73 ± 0.098
SAGGSAGGSAKKTLYKVKITKKNKNGEKIEIVVPKSEDEIKEEAKKKFGIDKIEIEPVELKSAGGSAGGSAG [r3_220_TrROS_Hall],-0.305 ± 0.16,0.466 ± 0.19,0.182 ± 0.17
SAGGSAGGSAKKVIKAKILEVKVLPDGTGLVKLEGEDGLEVVIPLSILENISPDAIVTIEASAGGSAGGSAG [r3_315_TrMRF],0.916 ± 0.055,1.79 ± 0.039,1.45 ± 0.066

Sequence,folding stability dG unfold [1] [kcal/mol],folding stability dG unfold [2] [kcal/mol],folding stability dG unfold [3] [kcal/mol]
SAGGSAGGSAKKVKIEEKDGELTITVEPGEKVLIVYPDGTVEEVEVKEGDTITLPPGAKVLPSAGGSAGGSA [r18_452_TrROS_Hall],0.513 ± 0.11,1.63 ± 0.12,1.33 ± 0.24
SAGGSAGGSAKLEYDDDYVEIEFKVPDGPIMIYIPDWGWMIWIWPGKEVTIRFPIPKPPDNSAGGSAGGSAG [r3_185_TrROS],2.41 ± 0.089,4.03 ± 0.24,3.43 ± 0.22
SAGGSAGGSAKLVKITFSNGEELVLPADKFSIEAIKSLPVPAKVEVFDVPKSDTNLEDLLKSAGGSAGGSAG [r3_69_TrMRF],0.72 ± 0.043,2.03 ± 0.022,1.66 ± 0.044
SAGGSAGGSAKMEIVLEVDTPEEAKEAAKKLAEELKKKGYKVKVEVKKLKNGKYYVKITVDSAGGSAGGSAG [r3_211_TrROS_Hall],3.33 ± 0.23,4.84 ± 0.26,4.66 ± 0.33
SAGGSAGGSAKPKVKIEVEERRVLTLDPETGELKEERVLVVRIEVEPGMSEEEAKKLLEELASAGGSAGGSA [r18_438_TrROS_Hall],1.7 ± 0.079,2.66 ± 0.12,2.27 ± 0.16
SAGGSAGGSAKPLTVEEIIKKLNLPPNVEIVDVKVDYGKTENKPIIVLVLKTKDKPYLPVFASAGGSAGGSA [r18_354_TrMRF],1.25 ± 0.097,1.91 ± 0.065,1.61 ± 0.17
SAGGSAGGSAKPNWVIIEMTIQIPEGDPEEIKEIMEPFGWEITGVDNNYIKVSILMPPGAKISAGGSAGGSA [r18_168_TrROS],1.26 ± 0.14,1.14 ± 0.043,1.26 ± 0.25
SAGGSAGGSAKPQKVELELFPNGELIIRLPETGARIRLKVEVFKDASGNPFFKLEIVDIDPSAGGSAGGSAG [r3_76_TrMRF],2.48 ± 0.14,2.66 ± 0.058,2.6 ± 0.16
SAGGSAGGSAKPVLEVEITVEVNGKLYKVRARVELEETPDGLVLKVEVELENGEKFEFTLKLSAGGSAGGSA [r18_54_TrROS_Hall],4.42 ± 0.26,5.13 ± 0.21,5.11 ± 0.28
SAGGSAGGSAKPVYKIRIVVKKDGKEFVKEIEVPEDEEEAEALAKELAKKPEVEKVEVEKVSAGGSAGGSAG [r3_310_TrROS_Hall],0.739 ± 0.075,1.84 ± 0.058,1.62 ± 0.18
SAGGSAGGSAKVTYTENSVTIHAKVPEKPLKIEIPNTGKVVTIDLDKEVTVTFPVPKPPDESAGGSAGGSAG [r3_185_TrMRF],-0.786 ± 0.07,-0.454 ± 0.1,-0.624 ± 0.17
SAGGSAGGSAKVYVNPDNNKVAVVLPPPGDSYLVLLFDPETGEVRLIEAPPEEVEELLKKGSAGGSAGGSAG [r3_162_TrMRF],0.618 ± 0.077,1.25 ± 0.097,0.845 ± 0.14
SAGGSAGGSAKWIYIMLPFPEGQKVEIEYPNGRKHSYEQTPDGMLMIRVRRPNAPIKIKIKSAGGSAGGSAG [r3_334_TrROS],1.9 ± 0.13,2.72 ± 0.23,2.4 ± 0.25
SAGGSAGGSALEIPFPIKDVKWERNPDGSRTRTFYLKNGWRASLIFNPKNGQMQIDIEPLDSAGGSAGGSAG [r3_438_TrROS],1.8 ± 0.073,1.57 ± 0.12,1.81 ± 0.17
SAGGSAGGSALEVPSNYLVEVRFPNETRLIPVEDLDAFFEAYPDVPWTDIRVLDPKTGKPISAGGSAGGSAG [r3_134_TrMRF],2.47 ± 0.04,1.923 ± 0.0098,2.19 ± 0.032
SAGGSAGGSALKNAPGPDPALLKPRPVLVIPIPKDIPLEEAEALAEIFRKLYPDVPVVLDVEGGSAGGSAGG [r6_299_TrMRF],0.826 ± 0.046,1.07 ± 0.072,0.971 ± 0.05
SAGGSAGGSALPTSPTYAVVKVPDKYYIVKTKVGDIIFIPDENGIPVPVKVEPFYPIAPEALSAGGSAGGSA [r18_244_TrMRF],-0.297 ± 0.16,-0.515 ± 0.4,-0.258 ± 0.18
SAGGSAGGSAMDAEEIADMIKEILRKQFPNVKITEITVERRPPGNYYVEARVPDGNQRTIPISAGGSAGGSA [r18_423_TrROS],-0.483 ± 0.15,0.286 ± 0.059,0.115 ± 0.061
